Measurements: patent US10005846 (LIFEARC, dated 2018)
Numbering of substitutions follows the chain as printed. One block for each binder: values may come before it.

Assays:
[1] = target: T1, human transglutaminase type 2 (TG2) (human, UniProt P21980 1-687); assay: cell-based or functional assay
T1 sequence: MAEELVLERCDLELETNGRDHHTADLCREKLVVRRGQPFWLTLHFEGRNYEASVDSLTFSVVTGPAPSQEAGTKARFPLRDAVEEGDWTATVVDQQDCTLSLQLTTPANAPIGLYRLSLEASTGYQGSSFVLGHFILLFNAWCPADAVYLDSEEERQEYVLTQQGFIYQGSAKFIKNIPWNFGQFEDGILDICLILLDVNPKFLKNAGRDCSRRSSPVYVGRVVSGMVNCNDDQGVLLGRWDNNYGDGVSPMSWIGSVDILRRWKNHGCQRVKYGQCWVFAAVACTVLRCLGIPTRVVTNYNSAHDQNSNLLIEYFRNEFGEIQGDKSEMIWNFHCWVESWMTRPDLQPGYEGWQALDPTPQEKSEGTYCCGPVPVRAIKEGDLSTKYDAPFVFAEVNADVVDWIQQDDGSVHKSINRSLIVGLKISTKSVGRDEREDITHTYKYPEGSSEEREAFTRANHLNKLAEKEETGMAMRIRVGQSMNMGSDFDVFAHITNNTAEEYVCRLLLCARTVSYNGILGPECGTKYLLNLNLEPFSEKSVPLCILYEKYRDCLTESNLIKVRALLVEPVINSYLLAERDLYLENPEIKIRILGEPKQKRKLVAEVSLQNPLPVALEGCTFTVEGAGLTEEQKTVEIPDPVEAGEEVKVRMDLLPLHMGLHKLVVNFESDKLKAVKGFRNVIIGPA

[2] = target: T1, human transglutaminase type 2 (TG2); assay: cell-based or functional assay; remark: listed apart in the source
[3] = target: T1, human transglutaminase type 2 (TG2); assay: cell-based or functional assay; remark: listed apart in the source
[4] = target: T1, human transglutaminase type 2 (TG2); assay: ELISA on immobilised human TG2; r2 0.9682; EC50 95% confidence range 0.03611 to 0.06410 [continued), panel B]
Protocol: (§1) Antibody binding to human and cynomolgus monkey TG2 was determined in an ELISA assay. Clear polystyrene "Maxisorp" 96-well plates (Nunc) were coated with 50 ng purified human or cynomogulus monkey TG2 in 50 µl 0.05 M carbonate-bicarbonate buffer pH 9.6 at 4° C. overnight. Control wells were coated with 50 µl 100 µg/ml bovine serum albumin (BSA). Plates were washed 3× with 300 µl phosphate-buffered saline pH7.4 (PBS) containing 0.1% Tween 20 (PBST) and blocked with 300 µl 3% w/v Marvel skimmed milk in PBS for 1 hour at room temperature. After 3× wash with PBST, 50 µl protein-A purified chimeric or humanised anti-TG2 antibodies or human IgG1 kappa […] control antibody or CUB7402 (Abcam) were serially diluted 4-fold from a top concentration of 50 nM in PBS, and added to the plate in duplicate. […] After 3× washes with PBST, the plates were developed with 50 µl TMB substrate (Sigma) for 5 min at room temperature before stopping the reaction with 25 µl 0.5M H2SO4 and reading absorbance at 450 nm in a microtiter plate reader (BioTek EL808). Dose response curves were analysed and EC50 values and other statistical parameters determined using a 4-parameter logistical fit of the data (GraphPad Prism).

rat TG2 [5] = target: T2, rat TG2 (rat, UniProt Q9WVJ6 1-686, limits assumed); assay: cell-based or functional assay
T2 sequence: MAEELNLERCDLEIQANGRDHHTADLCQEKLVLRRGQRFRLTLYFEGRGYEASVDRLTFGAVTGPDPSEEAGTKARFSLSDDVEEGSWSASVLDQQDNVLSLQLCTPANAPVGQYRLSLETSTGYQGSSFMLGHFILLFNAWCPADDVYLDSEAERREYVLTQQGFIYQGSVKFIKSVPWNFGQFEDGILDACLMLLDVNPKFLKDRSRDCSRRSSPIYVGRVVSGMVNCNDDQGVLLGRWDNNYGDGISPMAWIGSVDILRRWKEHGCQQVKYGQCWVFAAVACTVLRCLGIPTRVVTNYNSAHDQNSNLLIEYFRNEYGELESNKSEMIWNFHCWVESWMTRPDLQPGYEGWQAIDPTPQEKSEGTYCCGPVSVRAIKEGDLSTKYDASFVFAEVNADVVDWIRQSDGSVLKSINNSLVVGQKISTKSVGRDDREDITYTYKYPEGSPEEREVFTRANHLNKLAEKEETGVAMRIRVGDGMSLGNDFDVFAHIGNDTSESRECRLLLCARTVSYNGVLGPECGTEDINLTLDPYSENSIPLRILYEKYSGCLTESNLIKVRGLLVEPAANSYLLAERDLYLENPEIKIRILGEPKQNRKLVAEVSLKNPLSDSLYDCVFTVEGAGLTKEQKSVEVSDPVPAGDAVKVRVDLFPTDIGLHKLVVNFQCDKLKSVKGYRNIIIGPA

rat TG2 [6] = target: T2, rat TG2; assay: western blot and ELISA
[7] = target: T1, human transglutaminase type 2 (TG2); assay: cell-based or functional assay; remark: listed apart in the source
[8] = target: T1, human transglutaminase type 2 (TG2); assay: ELISA on immobilised human TG2; r2 0.9968; EC50 95% confidence range 0.2890 to 0.4002 [panel A]
Protocol: as §1

[9] = target: T1, human transglutaminase type 2 (TG2); assay: cell-based or functional assay; remark: listed apart in the source
[10] = target: T1, human transglutaminase type 2 (TG2); assay: ELISA on immobilised human TG2; r2 0.998; EC50 95% confidence range 0.1860 to 0.2368 [panel A]
Protocol: as §1

B1: AB1 murine monoclonal antibody (antibody, V domains shown)
VH: EVQLVESGGGLVKPGGSLKLSCAASGFTLSSSAMSWVRQTPDRRLEWVATISVGGGKTYYPDSVKGRFTISRDNAKNTLYLQMNSLRSEDTAMYYCAKLISLYWGQGTTLTVSS
VL: DIKMTQSPSSMYASLGERVTITCKASQDINSYLTWFQQKPGKSPKTLIYRTNRLFDGVPSRFSGSGSGQDFFLTISSLEYEDMGIYYCLQYDDFPYTFGGGTKLEIK
notes: Mouse hybridoma IgG; heavy chain amplified with constant region primer MHCG1, kappa light chain; also called mAB003
IC50, 3H-putrescine incorporation assay [1]: 1.1e-05 mg/ml of IgG (to inhibit 1 ng of TG2)
half-maximal concentration of enzymatic inhibition, headed EC50 nM on the sheet, IC50 in the legend [panel A] [2]: 9.5 nM

B3: BB7 murine monoclonal antibody (antibody, V domains shown)
VH: AVQLVESGGGLVKPGGSLKLSCAASGIIFSSSAMSWVRQTPEKRLEWVATISSGGRSTYYPDSVKGRFTVSRDSAKNTLYLQMDSLRSEDTAIYYCAKLISPYWGQGTTLTVSS
VL: B1 VL with D1A, T20I, R50L, F55M, D70E, F72L, S77G, Y80H, D92V
notes: Mouse hybridoma IgG; heavy chain amplified with primer MHCG1, kappa light chain; also called mBB001
IC50 of TG2 activity, 3H putrescine incorporation (rat TG2 [5]): 0.00032 mg/ml IgG per ng TG2
half-maximal concentration of enzymatic inhibition, headed EC50 nM on the sheet, IC50 in the legend [panel B] [2]: 0.752 nM

B4: DC1 murine monoclonal antibody (antibody, V domains shown)
VH: EVQLVESGGGLVKPGGSLKLSCAASGFTLSTHAMSWVRQTPEKRLEWVATISSGGRSTYYPDSVKGRFTISRDNVKNTLYLQLSSLRSEDTAVYFCARLISTYWGQGTTLTVSS
VL: B1 VL with K3T, M11I, T46I, R50L, T51V, F55V, F71Y, F72A
notes: Mouse hybridoma IgG; heavy chain amplified with primer MHCG1, kappa light chain; also called mDC001
IC50, 3H-putrescine incorporation assay [1]: 1.1e-05 mg/ml IgG per ng of recombinant TG2
binding result (rat TG2 [6]): binds

B5: DD9 murine monoclonal antibody (antibody, V domains shown)
VH: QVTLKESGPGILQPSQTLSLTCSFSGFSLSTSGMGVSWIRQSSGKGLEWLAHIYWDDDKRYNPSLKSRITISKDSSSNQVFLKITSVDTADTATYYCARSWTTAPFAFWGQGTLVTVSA
VL: QIVLTQSPAIMSASPGEKVTMTCSASSSVDYMYWYQQKPGSSPRLLIYDTSNLASGVPVRFSGSGSGTSYSLTISRMGAEDAATYYCQQWNSSPLTFGAGTKLELK
notes: Mouse hybridoma IgG; heavy chain amplified with primer MHCG2A, kappa light chain; also called mDD9001
IC50 of TG2 activity, 3H putrescine incorporation (rat TG2 [5]): 0.000303 mg/ml IgG per ng TG2

B6: cDH001 chimeric antibody (murine DH2 variable regions) (antibody, human IgG1, V domains shown)
VH: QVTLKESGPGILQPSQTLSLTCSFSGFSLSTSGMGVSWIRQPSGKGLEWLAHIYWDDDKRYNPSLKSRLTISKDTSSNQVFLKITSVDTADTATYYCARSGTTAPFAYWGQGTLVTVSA
VL: B5 VL with D30S, G78E, Y85F, N91S
IC50 of enzymatic inhibition, dansylated lysine incorporation into N,N-dimethylated casein [continued), panel E] [7]: 829000 pM
EC50 [8]: 340 pM

Next, values leading:

IC50 of enzymatic inhibition, dansylated lysine incorporation into N,N-dimethylated casein [panel B] [3]: 925 pM
EC50 [4]: 48.1 pM
B2: cBB001 chimeric antibody (murine BB7 variable regions) (antibody, human IgG1, V domains shown)
VH: B3 VH
VL: B1 VL with D1A, T20I, R50L, F55M, D70E, F72L, S77G, Y80H, D92V
notes: also called chimeric BB7

IC50 of enzymatic inhibition, dansylated lysine incorporation into N,N-dimethylated casein [continued), panel D] [9]: 172000 pM
EC50 [10]: 210 pM
B7: cDD9001 chimeric antibody (murine DD9 variable regions) (antibody, human IgG1, V domains shown)
VH: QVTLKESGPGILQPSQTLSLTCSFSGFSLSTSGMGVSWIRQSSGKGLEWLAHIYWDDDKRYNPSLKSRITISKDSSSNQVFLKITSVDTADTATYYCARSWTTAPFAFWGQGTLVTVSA
VL: B5 VL

IC50, 3H-putrescine incorporation assay [1]: 0.000123 mg/ml of IgG (to inhibit 1 ng of TG2)
binding result (rat TG2 [6]): binds
B8: JE12 murine monoclonal antibody (antibody, V domains shown)
VH: EVQLQQSGPELVKPGASVKMSCKASGYRFTSYVMHWVKQKSGQGLEWIGYINPYNDGAKYNEKFKGKATLTSDKSSSTAYMELSSLTSEDSAVYYCARLSSDYWGQGTTLTVSS
VL: DVLMTQNPLSLPVSLGDQASISCRSSQSIEHINGNTYLEWYLQKPGQSPKFLIYKVSNRFSGVPDRFSGSGSGTDFTLRISRVEAEDLGIYYCFQGSHVPFTFGGGTKLEIK
notes: Mouse hybridoma IgG; heavy chain amplified with primer MHCG1, kappa light chain

IC50 of TG2 activity, 3H putrescine incorporation (rat TG2 [5]): 0.000403 mg/ml IgG per ng TG2
B9: EH6 murine monoclonal antibody (antibody, V domains shown)
VH: B8 VH with R28T, S41P, Y50F, A58T, S75A, S77T, L99F, D102G
VL: B8 VL with N7T, E30V, I32S, F51L, R79K, E84G, I90V, F94L, G96V, G105S
notes: Mouse hybridoma IgG; heavy chain amplified with primer MHCG2B, kappa light chain
